Measured values as given in the supplement of paper PMC10724198.
± gives the standard deviation of the averaged measurements.
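Also: PSI is a weighted mean of sequencing reads over stability bins, variants kept only with over 10 reads, mCherry proximal and sfGFP distal, peptide attached via GGGS linker.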

Each sequence was assayed on Saccharomyces cerevisiae (assay: protein stability index of tFT-peptide fusion (C-terminal peptide) (PSI (0-1 scale)); higher = more stable (slower turnover)). Details: genetic background: wild type; temperature: 30 C.
PPTPPRLHRSPP gave a protein stability index of 0.69 ± 0.11. PPTPPRPPPRTT was tested, and the protein stability index was 0.69 ± 0.028. For PPTPRALFPPLP, the protein stability index was 0.745 ± 0.049. PPTTPHPTPTAP was tested, and the protein stability index was 0.689 ± 0.033. With PPVPPPDLCSAL the protein stability index was 0.653 ± 0.068. With PPVSPPSPRLPL the protein stability index was 0.7329 ± 0.0049. Sequence PPYAPPDHPPFR has a protein stability index of 0.699 ± 0.03. In the case of PPYDSSYGILLR, the protein stability index is reported as 0.7666 ± 0.0053. For PPYIMCPFTPGG, the protein stability index was 0.632 ± 0.024. PPYPPPHASPAP was tested, and the protein stability index was 0.693 ± 0.039. PPYPPPRPKPPR gave a protein stability index of 0.699 ± 0.012. Work on PPYSPSPRDPFA yielded a protein stability index of 0.713 ± 0.047. With PQIIFVSRASYL the protein stability index was 0.681 ± 0.015. Sequence PQPNSSEPTSQK has a protein stability index of 0.722 ± 0.011. With PQTAGTHRARVN the protein stability index was 0.698 ± 0.026. PQTPQTSTQAPG gave a protein stability index of 0.673 ± 0.01. Work on PQVLSPPLSTSR yielded a protein stability index of 0.728 ± 0.008. PQYLPLLPSPSP gave a protein stability index of 0.632 ± 0.048. In the case of PRALLCLLSRPC, the protein stability index is reported as 0.722 ± 0.1. In the case of PRAYPSNLPPSP, the protein stability index is reported as 0.721 ± 0.037. PRDLRVVRLTSA was tested, and the protein stability index was 0.63 ± 0.022. With PRDSRPLPAYSL the protein stability index was 0.591 ± 0.028. In the case of PRFGPPQLPAKA, the protein stability index is reported as 0.754 ± 0.062. Work on PRFPYGPFDFSI yielded a protein stability index of 0.669 ± 0.046. PRGALMKGYKPG was tested, and the protein stability index was 0.663 ± 0.1. In the case of PRGLGYHGALVL, the protein stability index is reported as 0.571. PRGPPPPAPPPT showed a protein stability index of 0.689 ± 0.0075. Sequence PRGRSRPRCVIR has a protein stability index of 0.684 ± 0.13. PRIGRPQSLTFH gave a protein stability index of 0.621 ± 0.011. PRIPHPPRPRPP was tested, and the protein stability index was 0.669 ± 0.024. PRLGFFPFPSGP was tested, and the protein stability index was 0.709 ± 0.03. With PRLLPPLGFLTF the protein stability index was 0.764 ± 0.075. In the case of PRLPLPPPPLPL, the protein stability index is reported as 0.683 ± 0.026. For PRLPYPSLFPCT, the protein stability index was 0.678 ± 0.056. Sequence PRPAAPSPPPLP has a protein stability index of 0.588 ± 0.014. In the case of PRPAQDAEPIQP, the protein stability index is reported as 0.646 ± 0.098. Work on PRPGGHLFLVFS yielded a protein stability index of 0.679 ± 0.033. In the case of PRPKNQMAIYRE, the protein stability index is reported as 0.708 ± 0.07. Sequence PRPLPLPPLALP has a protein stability index of 0.696 ± 0.027. PRPLTPPAPPHP showed a protein stability index of 0.748 ± 0.041. PRPPNPRPPPPP gave a protein stability index of 0.729 ± 0.071. For PRPPPPPASVCR, the protein stability index was 0.6579 ± 0.00069. Work on PRPPPRRPDFGL yielded a protein stability index of 0.825 ± 0.16. For PRPRRSSLPFPP, the protein stability index was 0.818 ± 0.073. PRPSPLSSLSVS showed a protein stability index of 0.7206 ± 0.0064. For PRRFPFRHATSP, the protein stability index was 0.635 ± 0.084. In the case of PRRLAPPPPPSP, the protein stability index is reported as 0.744 ± 0.012. For PRRPHDPFPAAP, the protein stability index was 0.686 ± 0.017. Sequence PRRPPPLPPASF has a protein stability index of 0.713 ± 0.047. PRRSNPQPTHIR gave a protein stability index of 0.708 ± 0.038. Work on PRSLPLDHPAPC yielded a protein stability index of 0.709 ± 0.085. In the case of PRSPLRYPPHCP, the protein stability index is reported as 0.691 ± 0.035. In the case of PRSPPPSSSTPD, the protein stability index is reported as 0.688 ± 0.036. Work on PRSPPRSLFFPC yielded a protein stability index of 0.648 ± 0.047. PRSRSGVAQGPE was tested, and the protein stability index was 0.6607 ± 0.0039. For PRSSVLPPCPSL, the protein stability index was 0.707 ± 0.025. PRSTFLRRHLRV gave a protein stability index of 0.6184 ± 0.0037. PRTGPLPPLTPL was tested, and the protein stability index was 0.679 ± 0.016. PRTSSPPRPFRF showed a protein stability index of 0.624 ± 0.022. For PRVLVVSAVNTV, the protein stability index was 0.695 ± 0.02. Work on PRYAEFVGRFEV yielded a protein stability index of 0.6508 ± 0.0064. With PSAFSPPARISL the protein stability index was 0.761 ± 0.066. Work on PSAGSPAPLLHP yielded a protein stability index of 0.705 ± 0.064. With PSALLGTCRCVQ the protein stability index was 0.706 ± 0.028. For PSAPPPSPLGRT, the protein stability index was 0.738 ± 0.059. PSAQPPPRPTRP gave a protein stability index of 0.6878 ± 0.0036. For PSCLPPPAHLEL, the protein stability index was 0.705 ± 0.043. Sequence PSFLPPAPLGIS has a protein stability index of 0.741 ± 0.038. PSFLSPCPPFLS was tested, and the protein stability index was 0.747 ± 0.039. PSFRTGLPPSDP was tested, and the protein stability index was 0.681 ± 0.038. With PSGLVSPSCLGC the protein stability index was 0.68 ± 0.022. Work on PSGRRRWACARG yielded a protein stability index of 0.694 ± 0.0097. Work on PSHLHERIRPAR yielded a protein stability index of 0.726 ± 0.16. Sequence PSHLNAPTTAPP has a protein stability index of 0.701 ± 0.038. Work on PSHVFSDCIAPP yielded a protein stability index of 0.696 ± 0.011. For PSILRGVLSAPK, the protein stability index was 0.695 ± 0.04. PSKRKRATPSKR gave a protein stability index of 0.647 ± 0.021. For PSLCFLPPPPSP, the protein stability index was 0.686 ± 0.0076. Sequence PSLFHHWSVLSP has a protein stability index of 0.785 ± 0.1. For PSLHPLSPSPPA, the protein stability index was 0.686 ± 0.041. With PSLHPNHLAPPP the protein stability index was 0.622 ± 0.046.
